US20180200331A1, “BST-2 AS A THERAPEUTIC TARGET AND DIAGNOSTIC MARKER FOR BREAST CANCER GROWTH AND METASTASIS” (University of Iowa Research Foundation, priority 2015, published 2018)

Assays:
BST-2 = test: Adhesion of cancer cells to plates coated with recombinant BST-2; type: cell-based; conditions: plates coated with 0, 20 or 50 ng rBST-2
Procedure: (§1) FIG. 22. […] PKH67Green-labeled shControl (shCTL)- or sh413 (shBST-2)-expressing (A) 4T1 or (B) E0771 cells were allowed to adhere to plates that were coated with 0, 20 or 50 ng of recombinant BST-2 (rBST-2) and fluorescence assessed with a plate reader. (C) Representative confocal images of cells attached to wells coated with increasing concentrations of rBST-2. (D) Quantification of PKH67Green-labeled MCF-7 cells expressing Vector, WT or C3A BST-2 adhered to plates that were coated with 0, 20 or 50 ng of rBST-2. […] Cells that adhered to WT MCF-7 monolayers were quantified and represented as relative fluorescence intensity. Each data point corresponds to six different wells analyzed. Error bars correspond to SEM. Significance was taken at P<0.05* and P<0.01**. n.s=not significant.
Low BST-2 expressing human breast cancer cells (MCF-7) stably expressing WT BST-2 (WT) efficiently binds BST-2 ECD while similar cells stably expressing dimerization mutant BST-2 (C3A) are defective in binding BST-2 ECD. Treatment of BST-2-expressing breast cancer cells with BST-2 ECD blocks cancer cell-to-cancer clustering (FIG. 22).

MCF-7 cells = test: Adhesion to MCF-7 WT monolayers blocked with rBST-2; type: cell-based, human
Procedure: as §1

B1: rBST-2: recombinant extracellular domain (ECD) of BST-2 (protein, UniProt Q10589 49-161, looked up)
extracellular domain: NSEACRDGLRAVMECRNVTHLLQQELTEAQKGFQDVEAQAATCNHTVMALMASLDAEKAQGQKKVEELEGEITTLNHKLQDASAEVERLRRENQVLSVRIADKKYYPSSQDSS
modifications: extracellular domain
BST-2
  binding to BST-2: binds to BST-2 in vitro
MCF-7 cells
  BST-2-mediated adhesion of breast cancer cells: prevents BST-2-mediated adhesion of breast cancer cells
